Reference: US20100317541A1

Biological target: α3 subunit isoform of Na, K-ATPase (human) (UniProt P13637)
Test: Western blot of control lysate, antibody at 1:2000, chemiluminescence, band density by Alpha DigiDoc 1000

Row | Substance | Average density
1 | α3 monoclonal antibody from Affinity Bioreagents (Golden, Colo.) | 45200
2 | α3 monoclonal antibody from Novus (Littleton, Colo.) | 41100
3 | α3 monoclonal antibody from Sigma (St Louis, Mo.) | 44600
